Test results reported in patent publication US20240270821A1, “GIP/GLP1/GCG TRI-RECEPTOR AGONISTS AND USES THEREOF” (priority 2023, published 2024).
Changes are numbered by the printed parent chain.

T1: human GIP receptor (human) (UniProt P48546)
T1 sequence (looked up): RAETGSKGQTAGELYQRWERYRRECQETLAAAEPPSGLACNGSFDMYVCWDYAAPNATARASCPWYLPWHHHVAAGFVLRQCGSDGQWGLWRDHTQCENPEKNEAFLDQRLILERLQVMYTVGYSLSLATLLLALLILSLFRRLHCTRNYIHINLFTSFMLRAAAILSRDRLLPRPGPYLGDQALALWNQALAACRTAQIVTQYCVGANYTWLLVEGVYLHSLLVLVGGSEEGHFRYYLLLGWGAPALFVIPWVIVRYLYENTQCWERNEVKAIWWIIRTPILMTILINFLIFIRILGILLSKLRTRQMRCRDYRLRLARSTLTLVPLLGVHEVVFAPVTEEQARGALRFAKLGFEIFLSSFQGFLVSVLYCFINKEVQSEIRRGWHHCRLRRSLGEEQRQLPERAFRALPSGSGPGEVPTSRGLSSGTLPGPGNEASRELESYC

B1: Example 383 (peptide)
chain: YXQGTXTSDYSIXLDKKAAXAFIEYLIETGPSSGAPPPSEG
modifications: synthetic construct; SITE 2: note = 2-Aminoisobutyric Acid; SITE 6: note = alpha-methyl-2-fluoro-L-phenylalanine; SITE 13: note = alpha-methyl-leucine; SITE 17: note = Lysine is chemically modified through conjugation of the epsilon-amino group of the Lysine side chain with (2-[2-(2-Amino-ethoxy)-et)
B2: Example 377 (peptide)
chain: YXQGTXTSDXXIXLDXKAQXXFIEXLLEGGPSSGEPPPE
modifications: synthetic construct; SITE 2: note = 2-Aminoisobutyric Acid; SITE 6: note = alpha-methyl-2-fluoro-L-phenylalanine; SITE 10: note = 3-(4-Pyridyl)-L-alanine; SITE 11: note = alpha-methyl-L-serine; SITE 13: note = alpha-methyl-leucine; SITE 16: note = L-ornithine; SITE 17: note = Lysine is chemically mo
B3: Example 380 (peptide)
chain: B2 chain with G34X
modifications: synthetic construct; SITE 2: note = 2-Aminoisobutyric Acid; SITE 6: note = alpha-methyl-2-fluoro-L-phenylalanine; SITE 10: note = 3-(4-Pyridyl)-L-alanine; SITE 11: note = alpha-methyl-L-serine; SITE 13: note = alpha-methyl-leucine; SITE 16: note = L-ornithine; SITE 17: note = Lysine is chemically mo
B4: Example 384 (peptide)
chain: B2 chain with X10Y, X25Y, E35A, E39S
modifications: synthetic construct; SITE 2: note = 2-Aminoisobutyric Acid; SITE 6: note = alpha-methyl-2-fluoro-L-phenylalanine; SITE 11: note = alpha-methyl-L-serine; SITE 13: note = alpha-methyl-leucine; SITE 16: note = L-ornithine; SITE 17: note = Lysine is chemically modified through conjugation of the epsilon
B5: Example 378 (peptide)
chain: B2 chain with L27I
modifications: synthetic construct; SITE 2: note = 2-Aminoisobutyric Acid; SITE 6: note = alpha-methyl-2-fluoro-L-phenylalanine; SITE 10: note = 3-(4-Pyridyl)-L-alanine; SITE 11: note = alpha-methyl-L-serine; SITE 13: note = alpha-methyl-leucine; SITE 16: note = L-ornithine; SITE 17: note = Lysine is chemically mo
B6: Example 381 (peptide)
chain: B2 chain with Y1H, X10Y, X21A, X25Y
modifications: synthetic construct; SITE 2: note = 2-Aminoisobutyric Acid; SITE 6: note = alpha-methyl-2-fluoro-L-phenylalanine; SITE 11: note = alpha-methyl-L-serine; SITE 13: note = alpha-methyl-leucine; SITE 16: note = L-ornithine; SITE 17: note = Lysine is chemically modified through conjugation of the epsilon
B7: Example 34 (peptide)
chain: YXQGTFTSDFSKXLDKKAQXAFIEYLLEAGPSSGAPPPGEG
modifications: not fully specified; Aib, αMeL; acylated Lys; C-terminal amide; synthetic construct; SITE 2: note = 2-Aminoisobutyric Acid; SITE 13: note = alpha-methyl-leucine; SITE 17: note = Lysine is chemically modified through conjugation of the epsilon-amino group of the Lysine side chain with (2-[2-(2-Amino-ethoxy)-ethoxy]-acetyl)-(gamma-Glu)-CO-(CH2) 18-CO2H; SITE 20: n
B8: Example 382 (peptide)
chain: YXQGTFTSDYXIXLDKKAQXAFIEYLIEGGPSSGAPPPS
modifications: synthetic construct; SITE 2: note = 2-Aminoisobutyric Acid; SITE 11: note = alpha-methyl-L-serine; SITE 13: note = alpha-methyl-leucine; SITE 17: note = Lysine is chemically modified through conjugation of the epsilon-amino group of the Lysine side chain with (2-[2-(2-Amino-ethoxy)-ethoxy]-acetyl)2-
B9: Example 387 (peptide)
chain: B8 chain with F6X, X11S, X13L, I27E
modifications: not fully specified; synthetic construct; SITE 2: note = 2-Aminoisobutyric Acid; SITE 6: note = alpha-methyl-2-fluoro-L-phenylalanine; SITE 17: note = Lysine is chemically modified through conjugation of the epsilon-amino group of the Lysine side chain with (2-[2-(2-Amino-ethoxy)-ethoxy]-acetyl)-(gamma-Glu)-CO-(CH2) 16-
B10: Example 385 (peptide)
chain: B8 chain with F6X, X11S, X13L, I27L
modifications: not fully specified; synthetic construct; SITE 2: note = 2-Aminoisobutyric Acid; SITE 6: note = alpha-methyl-2-fluoro-L-phenylalanine; SITE 17: note = Lysine is chemically modified through conjugation of the epsilon-amino group of the Lysine side chain with (2-[2-(2-Amino-ethoxy)-ethoxy]-acetyl)2-(gamma-Glu)-CO-(CH2 )18
B11: Example 386 (peptide)
chain: YXQGTXTSDYSILLDKKAQXAFIEYLLEGGPSSGAPPPE
modifications: not fully specified; synthetic construct; SITE 2: note = 2-Aminoisobutyric Acid; SITE 6: note = alpha-methyl-2-fluoro-L-phenylalanine; SITE 17: note = Lysine is chemically modified through conjugation of the epsilon-amino group of the Lysine side chain with (2-[2-(2-Amino-ethoxy)-ethoxy]-acetyl)2-(gamma-Glu)-CO-(CH2 )18
B12: Example 388 (peptide)
chain: B11 chain with L27E
modifications: not fully specified; synthetic construct; SITE 2: note = 2-Aminoisobutyric Acid; SITE 6: note = alpha-methyl-2-fluoro-L-phenylalanine; SITE 17: note = Lysine is chemically modified through conjugation of the epsilon-amino group of the Lysine side chain with (2-[2-(2-Amino-ethoxy)-ethoxy]-acetyl)-(gamma-Glu)-CO-(CH2) 16-

These binders were tested against hGLP-1R (Homo sapiens, UniProt P43220) (assay: cell-based or functional assay).
Sequence of hGLP-1R (P43220 24-463): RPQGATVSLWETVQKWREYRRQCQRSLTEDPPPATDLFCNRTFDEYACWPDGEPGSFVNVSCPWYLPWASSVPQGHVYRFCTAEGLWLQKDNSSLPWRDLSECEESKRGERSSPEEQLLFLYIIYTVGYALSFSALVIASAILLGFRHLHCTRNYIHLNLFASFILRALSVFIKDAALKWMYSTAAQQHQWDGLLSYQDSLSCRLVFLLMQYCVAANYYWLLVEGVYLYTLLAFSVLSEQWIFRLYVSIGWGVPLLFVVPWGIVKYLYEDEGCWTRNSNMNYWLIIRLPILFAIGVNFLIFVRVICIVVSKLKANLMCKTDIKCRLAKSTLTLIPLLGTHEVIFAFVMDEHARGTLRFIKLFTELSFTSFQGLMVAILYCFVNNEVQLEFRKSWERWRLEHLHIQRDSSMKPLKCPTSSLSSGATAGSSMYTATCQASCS
For B1, the Relative cAMP EC50 was 0.258 nM and the cAMP Rel EC50, nM (1% HSA) was 79.1 nM.
Binder B2 has a Relative cAMP EC50 of 0.367 nM and a cAMP Rel EC50, nM (1% HSA) of 29.4 nM.
In the case of B3, the Relative cAMP EC50 is reported as 0.354 nM and the cAMP Rel EC50, nM (1% HSA) is reported as 30.6 nM.
In the case of B4, the Relative cAMP EC50 is reported as 0.133 nM and the cAMP Rel EC50, nM (1% HSA) is reported as 19.3 nM.
B5 showed a Relative cAMP EC50 of 0.251 nM and a cAMP Rel EC50, nM (1% HSA) of 18.8 nM.
Work on B6 yielded a Relative cAMP EC50 of 0.157 nM and a cAMP Rel EC50, nM (1% HSA) of 24.5 nM.
In the case of B7, the Relative cAMP EC50 is reported as 1.16 nM and the cAMP Rel EC50 (in the presence of 1% HSA) is reported as 242 nM.
For B8, the Relative cAMP EC50 was 0.291 nM and the cAMP Rel EC50, nM (1% HSA) was 61.5 nM.
B9 gave a Relative cAMP EC50 of 0.255 nM and a cAMP Rel EC50, nM (1% HSA) of 26.5 nM.
B10 showed a Relative cAMP EC50 of 0.235 nM and a cAMP Rel EC50, nM (1% HSA) of 86.1 nM.
With B11 the Relative cAMP EC50 was 0.278 nM and the cAMP Rel EC50, nM (1% HSA) was 98.6 nM.
B12 showed a Relative cAMP EC50 of 0.373 nM and a cAMP Rel EC50, nM (1% HSA) of 52.5 nM.

These binders were tested against T1, human GIP receptor (human) (assay: cell-based or functional assay).
In the case of B1, the Relative cAMP EC50 is reported as 0.0406 nM and the cAMP Rel EC50, nM (1% HSA) is reported as 32.3 nM.
For B2, the Relative cAMP EC50 was 0.0377 nM and the cAMP Rel EC50, nM (1% HSA) was 11.1 nM.
B3 was tested, and the Relative cAMP EC50 was 0.0346 nM and the cAMP Rel EC50, nM (1% HSA) was 7.77 nM.
For B4, the Relative cAMP EC50 was 0.0152 nM and the cAMP Rel EC50, nM (1% HSA) was 3.63 nM.
Binder B5 has a Relative cAMP EC50 of 0.0213 nM and a cAMP Rel EC50, nM (1% HSA) of 2.15 nM.
Work on B6 yielded a Relative cAMP EC50 of 0.0156 nM and a cAMP Rel EC50, nM (1% HSA) of 7.01 nM.
With B7 the Relative cAMP EC50 was 0.122 nM and the cAMP Rel EC50 (in the presence of 1% HSA) was 44.2 nM.
B8 showed a Relative cAMP EC50 of 0.0368 nM and a cAMP Rel EC50, nM (1% HSA) of 17.7 nM.
B9 gave a Relative cAMP EC50 of 0.0276 nM and a cAMP Rel EC50, nM (1% HSA) of 5.64 nM.
B10 showed a Relative cAMP EC50 of 0.0141 nM and a cAMP Rel EC50, nM (1% HSA) of 4.03 nM.
B11 showed a Relative cAMP EC50 of 0.0156 nM and a cAMP Rel EC50, nM (1% HSA) of 5.62 nM.
B12 gave a Relative cAMP EC50 of 0.0462 nM and a cAMP Rel EC50, nM (1% HSA) of 14.1 nM.

What follows are binders tested against human glucagon receptor (human) (UniProt P47871) (assay: cell-based or functional assay).
Sequence of human glucagon receptor (human) (P47871 26-477): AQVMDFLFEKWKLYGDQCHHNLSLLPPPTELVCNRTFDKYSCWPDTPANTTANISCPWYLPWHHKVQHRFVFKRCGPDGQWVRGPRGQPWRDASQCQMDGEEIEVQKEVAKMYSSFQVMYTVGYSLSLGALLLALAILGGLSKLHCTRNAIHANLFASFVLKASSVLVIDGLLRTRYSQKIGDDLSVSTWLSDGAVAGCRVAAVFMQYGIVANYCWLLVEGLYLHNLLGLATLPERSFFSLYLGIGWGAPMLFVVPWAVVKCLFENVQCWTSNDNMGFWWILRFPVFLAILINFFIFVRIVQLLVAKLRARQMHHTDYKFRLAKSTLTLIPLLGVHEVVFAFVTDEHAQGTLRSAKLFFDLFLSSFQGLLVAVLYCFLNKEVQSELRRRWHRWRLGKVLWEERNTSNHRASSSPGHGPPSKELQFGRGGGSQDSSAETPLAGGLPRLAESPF
B1 was tested, and the Relative cAMP EC50 was 1.27 nM and the cAMP Rel EC50, nM (1% HSA) was 530 nM.
Binder B2 has a Relative cAMP EC50 of 1.36 nM and a cAMP Rel EC50, nM (1% HSA) of 163 nM.
For B3, the Relative cAMP EC50 was 1.17 nM and the cAMP Rel EC50, nM (1% HSA) was 150 nM.
Binder B4 has a Relative cAMP EC50 of 5.77 nM and a cAMP Rel EC50, nM (1% HSA) of 1730 nM.
For B5, the Relative cAMP EC50 was 1.45 nM and the cAMP Rel EC50, nM (1% HSA) was 176 nM.
With B6 the Relative cAMP EC50 was 1.39 nM and the cAMP Rel EC50, nM (1% HSA) was 176 nM.
In the case of B7, the Relative cAMP EC50 is reported as 3.47 nM and the cAMP Rel EC50 (in the presence of 1% HSA) is reported as 855 nM.
In the case of B8, the Relative cAMP EC50 is reported as 3.72 nM and the cAMP Rel EC50, nM (1% HSA) is reported as 1050 nM.
With B9 the Relative cAMP EC50 was 2.14 nM and the cAMP Rel EC50, nM (1% HSA) was 184 nM.
In the case of B10, the Relative cAMP EC50 is reported as 1 nM and the cAMP Rel EC50, nM (1% HSA) is reported as 700 nM.
In the case of B11, the Relative cAMP EC50 is reported as 1.7 nM and the cAMP Rel EC50, nM (1% HSA) is reported as 734 nM.
B12 was tested, and the Relative cAMP EC50 was 2.15 nM and the cAMP Rel EC50, nM (1% HSA) was 603 nM.
